The supplement of paper PMC7877785
± gives the uncertainty stated by the source.

Test: self-splicing fitness, log relative to wild type (ln ratio); higher = more splicing; Tetrahymena group I intron in knt gene, E. coli kanamycin selection, DiMSum; sequences stand for … in CUCUCU…GGAGGGAAAAGUUAUCAGGCAUGCACCUGGUAGCUAGUCUUUAAACCAAUAGAUUGCAUCGGUUUAAAAGGCAAGACCGUCAAAUUGCGGGAAAGGGGUCAACAGCCGUUCAGUACCAAGUCUCAGGGGAAACUUUGAGAUGGCCUUGCAAAGGGUAUGGUAAUAAGCUGACGGACAUGGUCCUAACCACGCAGCCAAGUCCUAAGUCAACAGAUCUUCUGUUGAUAUGGAUGCAGUUCACAGACUAAAUGUCGGUCGGGGAAGAUGUAUUCUUCUCAUAAGAUAUAGUCGGACCUCUCCUUAAUGGGAGCUAGCGGAUGAAGUGAUGCAACACUGGAGCCGCUGGGAACUAAUUUGUAUGCGAAAGUAUAUUGAUUAGUUUUGGAGUACUCGUGGUCG
In short: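 Six replicate transformations of E. coli BL21(DE3) with a pET-22b(+) library were grown overnight at 37°C or 30°C. The library randomised all eight P1ex-region intron nucleotides, the intron lying in the knt kanamycin-resistance gene, and plates were LB agar with or without 25 μg/mL kanamycin plus 100 μg/mL carbenicillin, 50 μM IPTG and 0.2% rhamnose. Pooled colonies were amplicon-sequenced on an Illumina HiSeq 2500, and fitness is the DiMSum error-weighted combination of wild-type-normalised replicate fold changes, kanamycin versus none.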

| Sequence | self-splicing fitness (ln) (30 °C) | self-splicing fitness (ln) (37 °C) |
| --- | --- | --- |
| AUACAGCAAUAUUACGACAA | -1.19 ± 0.093 | -0.929 ± 0.12 |
| AUACAGCAAUAUUACGACGA | -1.84 ± 0.13 | -0.966 ± 0.13 |
| AUACAGCAAUAUUACGACGG | -3.2 ± 0.15 | -0.835 ± 0.13 |
| AUACAGCAAUAUUACGAGUU | -2.65 ± 0.14 | -0.493 ± 0.1 |
| AUACAGCAAUAUUACGAUUC | -2.06 ± 0.1 | -0.118 ± 0.096 |
| AUACAGCAAUAUUACGCAAG | -2.28 ± 0.12 | -1.49 ± 0.13 |
| AUACAGCAAUAUUACGCCAU | -2.01 ± 0.13 | -0.757 ± 0.14 |
| AUACAGCAAUAUUACGCCGG | -2.34 ± 0.17 | -1.38 ± 0.21 |
| AUACAGCAAUAUUACGCGGA | -2.02 ± 0.17 | -1.74 ± 0.14 |
| AUACAGCAAUAUUACGCUAA | -1.96 ± 0.12 | -1.01 ± 0.12 |
| AUACAGCAAUAUUACGCUUC | -3.06 ± 0.17 | -3.25 ± 0.24 |
| AUACAGCAAUAUUACGGAGA | -3.81 ± 0.33 | -0.736 ± 0.27 |
| AUACAGCAAUAUUACGGAUA | -2.52 ± 0.14 | -2.38 ± 0.17 |
| AUACAGCAAUAUUACGGCCA | -0.834 ± 0.11 | -0.783 ± 0.1 |
| AUACAGCAAUAUUACGGGAU | -0.898 ± 0.076 | -0.747 ± 0.1 |
| AUACAGCAAUAUUACGGUGU | -3.8 ± 0.2 | -2.18 ± 0.13 |
| AUACAGCAAUAUUACGUACU | -0.171 ± 0.059 | 0.38 ± 0.083 |
| AUACAGCAAUAUUACGUAGU | -1.34 ± 0.067 | -0.206 ± 0.083 |
| AUACAGCAAUAUUACGUCAA | -2.32 ± 0.15 | -1.05 ± 0.1 |
| AUACAGCAAUAUUACGUCCG | -1.75 ± 0.13 | -1.38 ± 0.17 |
| AUACAGCAAUAUUACGUCGA | -1.77 ± 0.13 | -1.23 ± 0.12 |
| AUACAGCAAUAUUACGUGCU | -3.03 ± 0.15 | -1.18 ± 0.12 |
| AUACAGCAAUAUUACGUGUG | -1.73 ± 0.051 | -0.977 ± 0.062 |
| AUACAGCAAUAUUACGUUCU | 0.212 ± 0.1 | -0.221 ± 0.12 |

| Sequence | self-splicing fitness (ln) (30 °C) | self-splicing fitness (ln) (37 °C) |
| --- | --- | --- |
| AUAGAGCAAUAUUACGAUAU | -0.196 ± 0.065 | 1.04 ± 0.082 |
| AUAGAGCAAUAUUACGCAAA | -2.79 ± 0.2 | -1.03 ± 0.18 |
| AUAGAGCAAUAUUACGCGUU | -1.47 ± 0.12 | -0.672 ± 0.13 |
| AUAGAGCAAUAUUACGCUCU | -2.65 ± 0.28 | -1.32 ± 0.42 |
| AUAGAGCAAUAUUACGGAUU | -0.783 ± 0.091 | -0.15 ± 0.14 |
| AUAGAGCAAUAUUACGGUCG | -1.65 ± 0.18 | -1.12 ± 0.23 |
| AUAGAGCAAUAUUACGUACG | -2.22 ± 0.2 | -1.53 ± 0.23 |
| AUAGAGCAAUAUUACGUCAC | -1.53 ± 0.22 | -0.0932 ± 0.22 |
| AUAGAGCAAUAUUACGUCGC | -2.68 ± 0.2 | -0.381 ± 0.18 |
| AUAGAGCAAUAUUACGUCUU | 0.446 ± 0.074 | 0.419 ± 0.087 |
| AUAGAGCAAUAUUACGUUGG | -4.04 ± 0.25 | -2.51 ± 0.19 |
| AUAGAGCAAUAUUACGUUUA | -0.804 ± 0.13 | -0.629 ± 0.14 |
| AUAGAGCAAUAUUACGUUUG | -1.43 ± 0.11 | -2 ± 0.21 |
| AUAUAGCAAUAUUACGAACC | -1 ± 0.27 | 0.205 ± 0.24 |
| AUAUAGCAAUAUUACGAAGA | -2.16 ± 0.4 | -1.98 ± 0.47 |
| AUAUAGCAAUAUUACGACAA | -0.546 ± 0.21 | 0.567 ± 0.18 |
| AUAUAGCAAUAUUACGACCG | -1.62 ± 0.22 | 0.433 ± 0.41 |
| AUAUAGCAAUAUUACGAGAA | -1.72 ± 0.34 | -0.73 ± 0.36 |
| AUAUAGCAAUAUUACGAGCC | -2.89 ± 0.32 | -2.08 ± 0.37 |
| AUAUAGCAAUAUUACGAUAG | -2.39 ± 0.22 | -1.51 ± 0.24 |
| AUAUAGCAAUAUUACGAUUC | -1.29 ± 0.19 | -0.0451 ± 0.23 |
| AUAUAGCAAUAUUACGCACC | -0.862 ± 0.2 | -0.94 ± 0.18 |
| AUAUAGCAAUAUUACGCGCU | 0.0604 ± 0.24 | -0.878 ± 0.38 |
| AUAUAGCAAUAUUACGCGGA | -1.65 ± 0.26 | -1.67 ± 0.17 |

| Sequence | self-splicing fitness (ln) (30 °C) | self-splicing fitness (ln) (37 °C) |
| --- | --- | --- |
| AUAUAGCAAUAUUACGCUAU | -2.98 ± 0.27 | -0.715 ± 0.24 |
| AUAUAGCAAUAUUACGCUGA | -1.3 ± 0.2 | -1.15 ± 0.24 |
| AUAUAGCAAUAUUACGGAUA | -2.76 ± 0.31 | -1.63 ± 0.3 |
| AUAUAGCAAUAUUACGGAUC | -1.55 ± 0.2 | 0.109 ± 0.26 |
| AUAUAGCAAUAUUACGGCCU | -0.457 ± 0.22 | -1.58 ± 0.39 |
| AUAUAGCAAUAUUACGGGCU | -2.22 ± 0.17 | -1.6 ± 0.21 |
| AUAUAGCAAUAUUACGGGGU | -2.23 ± 0.18 | -2.25 ± 0.29 |
| AUAUAGCAAUAUUACGGGUA | -2.09 ± 0.25 | -0.788 ± 0.19 |
| AUAUAGCAAUAUUACGUAAG | -1.61 ± 0.14 | -0.705 ± 0.19 |
| AUAUAGCAAUAUUACGUACC | -1.41 ± 0.2 | -0.927 ± 0.28 |
| AUAUAGCAAUAUUACGUCCU | -0.548 ± 0.11 | 0.119 ± 0.12 |
| AUAUAGCAAUAUUACGUGAA | -1.57 ± 0.28 | -0.717 ± 0.33 |
| AUAUAGCAAUAUUACGUGAC | – | -2.85 ± 0.32 |
| AUAUAGCAAUAUUACGUGUU | -4.26 ± 0.39 | -1.21 ± 0.18 |
| AUAUAGCAAUAUUACGUUAA | -2.76 ± 0.23 | -3.36 ± 0.37 |
| AUAUAGCAAUAUUACGUUCA | -0.388 ± 0.23 | -0.707 ± 0.23 |
| AUAUAGCAAUAUUACGUUGC | -2.4 ± 0.19 | -1.25 ± 0.23 |
| AUCAAGCAAUAUUACGAAUU | -3.12 ± 0.14 | -1.21 ± 0.14 |
| AUCAAGCAAUAUUACGAGUC | -3.08 ± 0.23 | -2.19 ± 0.24 |
| AUCAAGCAAUAUUACGAUCG | -3.37 ± 0.2 | -3.55 ± 0.28 |
| AUCAAGCAAUAUUACGAUGC | -2.01 ± 0.19 | -1.1 ± 0.23 |
| AUCAAGCAAUAUUACGAUUU | -0.487 ± 0.056 | -0.186 ± 0.072 |
| AUCAAGCAAUAUUACGCCCG | -0.965 ± 0.17 | -0.202 ± 0.2 |
| AUCAAGCAAUAUUACGCCUA | -0.765 ± 0.11 | -0.646 ± 0.095 |

| Sequence | self-splicing fitness (ln) (30 °C) | self-splicing fitness (ln) (37 °C) |
| --- | --- | --- |
| AUCAAGCAAUAUUACGGAAA | -2.58 ± 0.24 | -1.7 ± 0.21 |
| AUCAAGCAAUAUUACGGAAG | -2.78 ± 0.11 | -2.01 ± 0.12 |
| AUCAAGCAAUAUUACGGAUC | -3.29 ± 0.25 | -1.91 ± 0.21 |
| AUCAAGCAAUAUUACGGCCC | -0.747 ± 0.31 | – |
| AUCAAGCAAUAUUACGGCCU | -0.508 ± 0.05 | 0.15 ± 0.066 |
| AUCAAGCAAUAUUACGGCUA | -0.209 ± 0.097 | 0.184 ± 0.11 |
| AUCAAGCAAUAUUACGGUUG | -3.05 ± 0.25 | -1.92 ± 0.19 |
| AUCAAGCAAUAUUACGUAAU | -1.1 ± 0.056 | -0.247 ± 0.081 |
| AUCAAGCAAUAUUACGUAGU | -2.22 ± 0.08 | -1.14 ± 0.097 |
| AUCAAGCAAUAUUACGUCAC | -2.32 ± 0.16 | -2.28 ± 0.3 |
| AUCAAGCAAUAUUACGUCAU | -2.05 ± 0.088 | -1.45 ± 0.088 |
| AUCAAGCAAUAUUACGUCGU | -1.5 ± 0.052 | -0.574 ± 0.071 |
| AUCAAGCAAUAUUACGUGCC | -1.51 ± 0.14 | -0.426 ± 0.16 |
| AUCAAGCAAUAUUACGUGCU | -2.33 ± 0.088 | -1.7 ± 0.11 |
| AUCAAGCAAUAUUACGUGGC | -4.3 ± 0.37 | -3.52 ± 0.35 |
| AUCCAGCAAUAUUACGAAUA | -1.44 ± 0.13 | -0.957 ± 0.13 |
| AUCCAGCAAUAUUACGAAUG | -1.94 ± 0.12 | -1.36 ± 0.11 |
| AUCCAGCAAUAUUACGACUG | -3.86 ± 0.3 | -2.95 ± 0.28 |
| AUCCAGCAAUAUUACGAGAG | -1.45 ± 0.098 | -1.05 ± 0.1 |
| AUCCAGCAAUAUUACGCAGG | -2.84 ± 0.3 | -2.7 ± 0.37 |
| AUCCAGCAAUAUUACGCAUU | -1.37 ± 0.064 | -0.265 ± 0.082 |
| AUCCAGCAAUAUUACGCCCG | -1.84 ± 0.38 | -1.04 ± 0.37 |
| AUCCAGCAAUAUUACGCUGC | -3.85 ± 0.19 | -1.59 ± 0.15 |
